Source: patent publication US20020115631A1 (IDUN PHARMACEUTICALS, published 2002)

B1: 6HBad fusion protein (full length human Bad with N-terminal six residue Histidine tag, construct pET-15 6H Bad) (other, not shown: small tags and cut ends)
chain: MFQIPEFEPSEQEDSSSAERGLGPSPAGDGPSGSGKHHRQAPGLLWDASHQQEQPTSSSHHGGAGAVEIRSRHSSYPAGTEDDEGMGEEPSPFRGRSRSAPPNLWAAQRYGRELRRMSDEFVDSFKKGLPRPKSAGTATQMRQSSSWTRVFQSWWDRNLGRGSSAPSQ
notes: Made in E. coli BL21 plysS, purified on nickel, coated on ELISA plates at 4 ug/ml; also called human 6HBad
B2: human Bad expressed as a fusion protein with the transcriptional activator B42 (prey, vector pJG4-5) (other, not shown: large carriers)
chain: B1 chain
notes: also called itself; B42-Bad
B3: human Bak expressed as a fusion protein with the transcriptional activator B42 (prey, vector pJG4-5) (other, UniProt Q16611 1-187, looked up, not shown: large carriers)
chain: MASGQGPGPPRQECGEPALPSASEEQVAQDTEEVFRSYVFYRHQQEQEAEGVAAPADPEMVTLPLQPSSTMGQVGRQLAIIGDDINRRYDSEFQTMLQHLQPTAENAYEYFTKIATSLFESGINWGRVVALLGFGYRLALHVYQHGLTGFLGQVTRFVVDFMLHHCIARWIAQRGGWVAALNLGNGP
notes: no residue range is printed; also called B42-Bak

Legend:
[1] = biological target: T1, GST-Bcl-xL fusion protein (pGEX 4T1, N-terminal glutathione-S-transferase tag) (human, UniProt Q07817 1-212); assay: ELISA, 6HBad coated on the plate, GST fusion in solution, anti-GST detection
T1 construct: no residue range is printed; also called pGEX-Bcl-XL
T1 sequence (Q07817 1-212): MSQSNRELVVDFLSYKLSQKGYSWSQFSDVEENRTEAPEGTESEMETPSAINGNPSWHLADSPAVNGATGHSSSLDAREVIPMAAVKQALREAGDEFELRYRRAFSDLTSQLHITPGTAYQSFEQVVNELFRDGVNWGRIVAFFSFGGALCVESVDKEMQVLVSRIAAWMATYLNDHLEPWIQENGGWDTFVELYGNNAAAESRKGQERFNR

[2] = biological target: T2, GST-Bax fusion protein (pGEX 4T1, N-terminal glutathione-S-transferase tag) (human, UniProt Q07812 1-171); assay: as above
T2 construct: no residue range is printed; also called pGEX Bax
T2 sequence (Q07812 1-171): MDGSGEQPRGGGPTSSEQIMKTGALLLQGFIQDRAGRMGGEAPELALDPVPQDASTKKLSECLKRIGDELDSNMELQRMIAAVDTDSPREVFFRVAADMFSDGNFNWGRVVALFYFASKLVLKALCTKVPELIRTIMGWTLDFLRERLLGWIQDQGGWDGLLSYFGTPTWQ

[3] = biological target: T3, full length human Bad expressed as a fusion protein with the DNA-binding protein LexA (bait, vector pEGE202) (human, UniProt P0A7C2 1-202 (Escherichia coli entry)); assay: yeast two-hybrid, beta-galactosidase reporter (LexA-Bad bait, B42 prey)
T3 construct: Expressed in yeast EGY191 for the two-hybrid assay; also called Bad-bait; LexA-Bad
T3 sequence: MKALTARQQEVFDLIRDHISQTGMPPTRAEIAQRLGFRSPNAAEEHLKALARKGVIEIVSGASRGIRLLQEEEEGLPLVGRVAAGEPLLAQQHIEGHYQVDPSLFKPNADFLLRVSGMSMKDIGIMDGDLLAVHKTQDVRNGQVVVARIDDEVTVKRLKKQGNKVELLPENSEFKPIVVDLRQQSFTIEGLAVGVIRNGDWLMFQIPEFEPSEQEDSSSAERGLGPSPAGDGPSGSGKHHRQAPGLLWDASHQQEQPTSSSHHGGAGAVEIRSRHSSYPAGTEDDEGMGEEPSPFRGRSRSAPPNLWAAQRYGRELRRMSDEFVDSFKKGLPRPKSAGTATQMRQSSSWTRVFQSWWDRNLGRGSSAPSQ
Source text: Briefly, the full length human Bad sequence was subcloned into the yeast 2-hybrid vector pEGE202, or “bait-vector” to express Bad as a fusion protein wish the DNA-binding protein LexA (Ruden et al., Nature (1991) 350:426-430). Human Bcl-2, Bcl-X, Bax, Bak and Bad were similarly cloned into the yeast 2-hybrid vector pJG4-5, or “prey-vector” to expressed these Bcl-2 family members as fusion proteins with the transcriptional activator B42 (Gyuris et al., Cell (1993) 75:791-803). Briefly, the full length human Bad sequence was amplified by PCR and subcloned into the bait-vector. For the PCR reaction we used the following primers: 5′ATCAGTGAATTCACTATGTTCCAGATCCCA GAC3′ (SEQ ID NO: 4) and 5′ ATCGATCTCGAGTCACTGGGAGGGGGCGGA GCT3′ (SEQ ID NO: 5). The resultant PCR fragment was digested with EcoRI and Xho I and then subcloned into the bait vector. The human Bad sequence was also PCR amplified and subcloned into the prey-vector using the same primers and subcloning strategy as described above. […]
To determine if human Bad binds to any of the above Bcl-2 family members, the Bad-bait plasmid was cotransformed with every prey plasmid and the reporter plasmid p18-34 into the yeast strain EGY191. […] The reaction was stopped with 0.4 M NaOH and the plate was read at an OD 420 nm.

Binder	binding result [1]	binding result [2]	binding result [3]
B1	binds	no binding	–
B2	–	–	no binding
B3	–	–	no binding
